The target in data set [1] is Archaeoglobus fulgidus malate dehydrogenase mutant 1 (R102Q) (Archaeoglobus fulgidus). Kind of data set: SEC-MALS; SEC-MALLS with refractometry; Enrich 650 column, 50 mM Tris-HCl pH 7.2, 50 mM NaCl, room temperature, 50 ul at ~1 mg/ml, 0.5 ml/min; self-association (dimer). A general note: Size exclusion chromatography separates by hydrodynamic size, large species first.

The target of data set [2] is Archaeoglobus fulgidus malate dehydrogenase mutant 2 (P250I) (Archaeoglobus fulgidus). Described as above.
In data set [3] the target is Archaeoglobus fulgidus malate dehydrogenase mutant 3 (R102Q and P250I) (Archaeoglobus fulgidus). Described as above.
Substrate in data set [4]: CC(=O)C(=O)O
In words: purified protein. The data set is classed as biochemical, Archaeoglobus fulgidus. The conditions noted are these: 0.5 mM NADH, MES pH 6.0, 50 mM NaCl, 70 °C (340 K in Figure 3).

Substrate in data set [5]: O=C(O)CC(=O)C(=O)O
Kind of data set: purified protein. To be noted: 0.5 mM NADH, 50 mM potassium phosphate pH 7.0, 50 mM NaCl. Type of data set: biochemical, Archaeoglobus fulgidus.

Data set [6] deals with the molecule itself. Kind of data set: SEC-MALS; SEC-MALLS with refractometry; Enrich 650 column, 50 mM Tris-HCl pH 7.2, 50 mM NaCl, room temperature, 50 ul at ~1 mg/ml, 0.5 ml/min; self-association (dimer).
The mark [7] stands for this setting: mutant 3, sigmoid (homotropic activation).
The mark [8] stands for this setting: 70 °C (340 K in Figure 3), substrate inhibition at excess OAA.
Where [9] appears, read: 70 °C (340 K in Figure 3), mutant 2, hyperbolic, text b25 gives 1.31 mM.

Regarding “Archaeoglobus fulgidus malate dehydrogenase mutant 1 (R102Q) (enzyme)”, the stoichiometry N in data set [1] was 2.

Molecule “Archaeoglobus fulgidus malate dehydrogenase mutant 2 (P250I) (enzyme)” returned a stoichiometry N in data set [2] of 2.

With “Archaeoglobus fulgidus malate dehydrogenase mutant 3 (R102Q and P250I) (enzyme)”, the stoichiometry N in data set [3] was 2.

B1: Wt A. fulgidus MalDH (Archaeoglobus fulgidus DSM 4304; P216I/R81Q) (protein)
chain: MKLGFVGAGRVGSTSAFTCLLNLDVDEIALVDIAEDLAVGEAMDLAHAAAGIDKYPKIVGGADYSLLKGSEIIVVTAGLAQKPGMTRLDLAHKNAGIIKDIAKKIVENAPESKILVVTNPMDVMTYIMWKESGKPRNEVFGMGNQLDSQRLKERLYNAGARNIRRAWIIGEHGDSMFVAKSLADFDGEVDWEAVENDVRFVAAEVIKRKGATIFGIAVAIYRMVKAVVEDTGEIIPTSMILQGEYGIENVAVGVPAKLGKNGAEVADIKLSDEEIEKLRNSAKILRERLEELGY
notes: full-length, codon-optimized synthetic gene in pET-20a (NdeI/BamHI), E. coli BL21 DE3 pLysS; no tag mentioned; homodimer, theoretical 72 kDa (SEC-MALLS 62-65 kDa)
B1: in “purified protein [4]” (setting [7]), the K0.5 is recorded as 100 mM, the kcat was found to be 21 s⁻¹ and the catalytic efficiency (kcat/Km) was 210 M⁻¹ s⁻¹.

B2: Wt A. fulgidus MalDH (Archaeoglobus fulgidus DSM 4304; R81Q) (protein)
chain: MKLGFVGAGRVGSTSAFTCLLNLDVDEIALVDIAEDLAVGEAMDLAHAAAGIDKYPKIVGGADYSLLKGSEIIVVTAGLAQKPGMTRLDLAHKNAGIIKDIAKKIVENAPESKILVVTNPMDVMTYIMWKESGKPRNEVFGMGNQLDSQRLKERLYNAGARNIRRAWIIGEHGDSMFVAKSLADFDGEVDWEAVENDVRFVAAEVIKRKGATIFGPAVAIYRMVKAVVEDTGEIIPTSMILQGEYGIENVAVGVPAKLGKNGAEVADIKLSDEEIEKLRNSAKILRERLEELGY
notes: as for B1
For the molecule B2, in the data set “purified protein [4]” (mutant 1, pH 6.0), the K0.5 is reported as 5.6 mM, the catalytic constant (kcat) was determined as 40 s⁻¹ and the kcat/Km came to 7100 M⁻¹ s⁻¹. In the data set “purified protein [5]” (70 °C, mutant 1, pH 7.0), the K0.5 is 14 mM, the kcat was determined as 12 s⁻¹ and the catalytic efficiency (kcat/Km) turned out to be 900 M⁻¹ s⁻¹.

B3: Wild-type Archaeoglobus fulgidus malate dehydrogenase (enzyme)
chain: MKLGFVGAGRVGSTSAFTCLLNLDVDEIALVDIAEDLAVGEAMDLAHAAAGIDKYPKIVGGADYSLLKGSEIIVVTAGLARKPGMTRLDLAHKNAGIIKDIAKKIVENAPESKILVVTNPMDVMTYIMWKESGKPRNEVFGMGNQLDSQRLKERLYNAGARNIRRAWIIGEHGDSMFVAKSLADFDGEVDWEAVENDVRFVAAEVIKRKGATIFGPAVAIYRMVKAVVEDTGEIIPTSMILQGEYGIENVAVGVPAKLGKNGAEVADIKLSDEEIEKLRNSAKILRERLEELGY
notes: synthetic gene codon-optimised for E. coli, in pET-20a (NdeI/BamHI); No tag is mentioned; purification was by heat treatment, ion exchange and gel filtration; Homodimer; also called Wt A. fulgidus MalDH; Wt enzyme; source: E. coli BL21 DE3 pLysS, purified (70 °C heat step, Q sepharose, gel filtration)
Turning to B3, the “stoichiometry N” value in data set [6] came out at 2. Further, in “purified protein [5]” (setting [8]), the K0.5 is given as 0.1 mM, the catalytic constant (kcat) is 417 s⁻¹ and the kcat/Km worked out at 4.3e+06 M⁻¹ s⁻¹.

B4: Wt A. fulgidus MalDH (Archaeoglobus fulgidus DSM 4304; P216I) (protein)
chain: MKLGFVGAGRVGSTSAFTCLLNLDVDEIALVDIAEDLAVGEAMDLAHAAAGIDKYPKIVGGADYSLLKGSEIIVVTAGLARKPGMTRLDLAHKNAGIIKDIAKKIVENAPESKILVVTNPMDVMTYIMWKESGKPRNEVFGMGNQLDSQRLKERLYNAGARNIRRAWIIGEHGDSMFVAKSLADFDGEVDWEAVENDVRFVAAEVIKRKGATIFGIAVAIYRMVKAVVEDTGEIIPTSMILQGEYGIENVAVGVPAKLGKNGAEVADIKLSDEEIEKLRNSAKILRERLEELGY
notes: as for B1
On to B4, for which, in “purified protein [5]” (setting [9]), the K0.5 worked out at 1.3 mM, the kcat amounted to 175 s⁻¹ and the kcat/Km is 130000 M⁻¹ s⁻¹.

What is called stoichiometry N is a count of units in the complex or per binding partner. The kcat is the maximal rate divided by the concentration of active sites. What is called kcat/Km is the turnover number divided by the Michaelis constant.

The values above are taken from paper PMC9486893, “Protein Conformational Space at the Edge of Allostery: Turning a Nonallosteric Malate Dehydrogenase into an “Allosterized” Enzyme Using Evolution-Guided Punctual Mutations” (Molecular Biology and Evolution, 2022).
